# Reference: article PMC9696751
# Ends that are not written are not given here.
# Molecular target: nano-HER2-E3 (UniProt P04637)
# Assay: SEC; analytical chromatography on Superdex 200 Increase 5/150 GL; equimolar mixtures
binder,measurement,value
C(Alexa‑647 maleimide)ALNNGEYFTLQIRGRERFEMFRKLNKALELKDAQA [647-C-K3],formation of the complexes (percent),< 95%
